Patent publication US11976099B2, “Compositions and methods for treatment of bone associated diseases” (THE NATIONAL INSTITUTE FOR BIOTECHNOLOGY IN THE NEGEV LTD., priority 2016, dated 2024)

B1: M-CSFM: 158 amino acid M-CSF with cysteine at position 31 replaced by serine (SEQ ID NO: 2) (protein)
chain: EEVSEYCSHMIGSGHLQSLQRLIDSQMETSSQITFEFVDQEQLKDPVCYLKKAFLLVQDIMEDTMRFRDNTPNAIAIVQLQELSLRLKSCFTKDYEEHDKACVRTFYETPLQLLEKVKNVFNETKNLLDKDWNIFSKNCNNSFAECSSQGHERQSEGS
B2: M-CSFC31S,M27R: M-CSF double mutant containing both C31S and M27R; monomeric, monospecific c-FMS antagonist (protein)
chain: EEVSEYCSHMIGSGHLQSLQRLIDSQRETSSQITFEFVDQEQLKDPVCYLKKAFLLVQDIMEDTMRFRDNTPNAIAIVQLQELSLRLKSCFTKDYEEHDKACVRTFYETPLQLLEKVKNVFNETKNLLDKDWNIFSKNCNNSFAECSSQGHERQSEGS
B3: M-CSFWT: wild-type human M-CSF, disulfide-bond-linked homodimer which binds and activates c-FMS (protein)
chain: EEVSEYCSHMIGSGHLQSLQRLIDSQMETSCQITFEFVDQEQLKDPVCYLKKAFLLVQDIMEDTMRFRDNTPNAIAIVQLQELSLRLKSCFTKDYEEHDKACVRTFYETPLQLLEKVKNVFNETKNLLDKDWNIFSKNCNNSFAECSSQGHERQSEGS
B4: 5.6: bispecific M-CSFRGD variant from sort five; M-CSFM loop replaced by XXXRGDXXX motif; binds c-FMS and αvβ3 integrin (protein)
chain: EEVSEYCSHMIGSGHLQSLQRLIDTYPRGDMCSITFEFVDQEQLKDPVCYLKKAFLLVQDIMEDTMRFRDNTPNAIAIVQLQELSLRLKSCFTKDYEEHDKACVRTFYETPLQLLEKVKNVFNETKNLLDKDWNIFSKNCNNSFAECSSQGHERQSEGS
modifications: left off: small tags and cut ends

Experiments:
[1] = test system: Murine bone marrow derived monocytes (BMMs); assay: Direct cell binding assay, flow cytometry, murine primary cells; format: cell-based, mouse; details: for direct cell binding: mouse primary cells, 1 μM, 2.5 μM and 7.5 μM
Experimental: Murine bone marrow derived monocytes (BMMs) were obtained by flushing the bone marrow from the femur and tibia of WT C57BL6 mice. The cells were treated with ACK red lysis buffer (Thermo Fisher Scientific, USA) and plated on bacterial culture dishes in αMEM growth medium (Biological Industries, Israel) containing recombinant murine M-CSF (40 ng/ml) (R&D systems, USA). The cells were incubated for 3 days at 37° C. under 5% CO2 to induce monocyte adhesion and proliferation. The plates were washed with PBS, the cells were detached using a cell scraper, and 10^5 cells were transferred to each well in a 96-well plate. The cells were washed twice with 200 μl of 0.1% PBSA. Binding was determined as described for labeled M-CSFM and the M-CSFRGD proteins. For murine c-FMS expression, anti-mouse CD115 (CSF-1R) (BioLegend, USA) was used at 1:50 concentration and detected with goat anti-rat (PE) antibody (Abcam, USA). For αvβ3 integrin expression, the Alexa Fluor® 488 anti-mouse/rat CD61 (BioLegend, USA) antibody was used as previously described. Samples were analyzed with Accuri C6 flow cytometry analyzer (BD Biosciences, USA). The experiment was repeated three times at each concentration.
Assays for direct cell binding were conducted on breast cancer cell line MDA-MB-231 and murine primary cells with flow cytometer. MDA-MB-231 was used because the cells express αvβ3 integrin and c-FMS on the cell membrane, a protein expression pattern that imitates the osteoclast state just before reaching full differentiation and maturation. […] Murine primary cells that were obtained from bone marrow were tested for binding without any induction of differentiation (t=0). Such cells express high levels of c-FMS and low levels of αvβ3 integrin (FIGS. 11A and 11B), a state that imitates an early osteoclast differentiation stage.

[2] = BS^3 chemical cross linking / SDS-PAGE dimerization assay; format: physicochemical; details: for dimerization after BS^3 cross linking: Example 4, BS^3 up to 2500 μM, FIG. 8; for monomer/dimer bands after BS^3 cross linking: Example 11, BS^3 0-2500 μM, SDS-PAGE, FIG. 16A
Experimental: Then, Tris was added to a final concentration of 30 mM and the mixture was incubated for 15 min at room temperature. Samples were denaturized and loaded on 15% SDS-PAGE. The gels were stained with coomassie blue (InstantBlue, Expedeon, CA, USA) and visualized with MiniBis pro (DNR Bio-Imaging Systems, Jerusalem, Israel).
BS^3 crosslinking assay—Human (4 μg) and murine M-CSFWT (1 μg), M-CSFC31S (1 μg) and M-CSFC31S,M27R (2.5 μg) were incubated with different concentrations of BS^3 [bis(sulfosuccinimidyl)suberate] (ThermoFisher Scientific, MA, USA) cross linker (0, 25 μM, 100 μM, 250 μM, 500 μM, 1000 μM and 2500 μM) for 30 min at room temperature. Then, […] was added to a final concentration of 30 mM, and the mixture was incubated for 15 min at room temperature. Samples were denaturized with sample buffer, boiled, and loaded on 15% SDS-PAGE for protein separation. The gels were stained with InstantBlue staining (Expedeon, CA, USA) for 40 min, followed by two washing steps with double distilled water. The gels were visualized with MiniBis pro (DNR Bio-Imaging Systems, Jerusalem, Israel).
Experiments were conducted in order to verify that the purified variants are incapable of dimerizing. The purified variants were incubated with a cross linker reagent (BS^3 [bis(sulfosuccinimidyl)suberate]) to enhance and visualize non-covalent intermolecular interactions. Following incubation, the reactions were stopped and the samples were loaded in denaturized conditions on a protein gel.
To validate the structural and computational analysis and to verify that M-CSFC31S,M27R is indeed a monomer, several biophysical assays were conducted. First, purified murine and human M-CSFWT, M-CSFC31S and M-CSFC31S,M27R were crosslinked via lysine residues using different amounts of BS^3 reagent [bis(sulfosuccinimidyl)suberate], and the proteins sizes were evaluated using SDS-PAGE (FIG. 16A). Murine M-CSFWT served as positive control, since it has a lysine in the dimerization site (K68), which facilitates the intermolecular cross-linking of the two monomers in the dimer. […] The dimer band became more prominent at higher BS^3 concentrations. It is likely that the non-covalent dimerization allows other lysines in M-CSFC31S to come into close proximity and crosslink.

[3] = test system: human peripheral blood CD14+ monocytes differentiating to osteoclasts; assay: Osteoclast differentiation assay of human CD14+ monocytes (TRAP staining); format: cell-based; details: Example 14, CD14+ cells; for osteoclast formation: 50, 250, 1000 nM with M-CSFWT and RANKL
Text: Differentiation assay—BMMs and CD14+ cells were obtained and grown as described above. The plates containing the monocytes were washed with PBS; the cells were detached using a cell scraper for BMMs or Accutase (Biological industries, Israel) for CD14^+; and 2×10^4 BMMs or 1×10^4 CD14^+ cells were transferred to each well in a 96-well plate. Osteoclast differentiation was induced as described in the ‘phosphorylation assay’ section. To determine the influence of M-CSFC31S and the M-CSFC31S,M27R on osteoclast differentiation, the proteins were added to the differentiation medium (with M-CSF and RANKL) in different concentrations (50 nM, 1 μM and 5 μM for BMMs and 50 nM, 250 nM and 1 μM for CD14^+). To determine the influence of human M-CSFWT on the differentiation, it was added to the cells in different concentrations (50 nM 1 μM and 5 μM) without adding murine M-CSFWT. Once the cells were fully differentiated, they were fixed with 4% paraformaldehyde and stained using the tartrate-resistant acid phosphatase (TRAP) staining kit (Sigma-Aldrich, USA) according to the manufacturer's protocol. As the positive control, cells were incubated with M-CSF and RANKL without inhibitors, and the negative control was comprised of cells that were incubated in differentiation medium without RANKL. […] Cells in each image were counted in a double-blind manner, and the number of nuclei in the osteoclasts was determined using ImageJ software. For the positive control of BMMs, an average of 28.33 osteoclasts and 135 nuclei per well were counted. For CD14^+ positive control, the average numbers of osteoclasts and nuclei were 14.5 and 75, respectively, per well. The results for each parameter were normalized to the positive control values.
In light of the above-described decrease in phosphorylation, it was hypothesized that incubation of M-CSFC31S,M27R with differentiating monocytes would result in decreased formation of osteoclasts. To test this premise, either BMMs or CD14^+ cells were incubated with murine or human M-CSFWT (20 ng/ml), respectively, and murine RANKL (20 ng/ml) together with M-CSFC31S and M-CSFC31S,M27R at concentrations of 50 and 1000 and 5000 nM for BMMs and 50, 250, 1000 nM for CD 14^+ cells. The cells were allowed to differentiate for 96 h or until they reached full differentiation. In BMMs incubated with M-CSFC31S, osteoclasts formed rapidly, and therefore they differentiated only for 72 h. Then, the cells were stained with a tartrate-resistant acid phosphatase (TRAP) staining kit (FIGS. 19A, B). […] This inhibition of differentiation behavior was observed also for M-CSFWT.

Molecule | direct cell binding [1] | relative cell binding ([1]; no induction of differentiation (t=0)) | dimerization after BS^3 cross linking [2] | monomer/dimer bands after BS^3 cross linking [2] | number of osteoclasts and number of nuclei [3] | osteoclast formation [3]
B1 | binding in a dose dependent manner | stronger cell binding than 5.6 and 4.22 | some dimerization interactions | mixture of monomer and dimer bands | the opposite result | highly accelerated in the two lower concentrations
B2 |  |  |  | did not produce any band corresponding to a dimer | a decrease in both parameters, in a dose-dependent manner | significantly inhibited, in a dose-dependent manner
B3 |  |  |  | only a faint band in a size that corresponds to a dimer |  | 
B4 | binding in a dose dependent manner |  | did not show any dimerization |  |  | 
